Test results: patent US20040082762A1 (Janssen / Centocor, published 2004)

Molecular target: T1, Aβ 1-42 peptide (human, UniProt P05067 672-713)
T1 construct: domain: Aβ 1-42; also called Aβ42
Test: competitive ELISA on Aβ1-42; labelled antibody biotinylated murine 12B4

T1 sequence (P05067 672-713 limits assumed): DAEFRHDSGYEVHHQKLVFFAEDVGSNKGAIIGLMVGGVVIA

Row | binding result | Binder
1 | binds | chimeric 12B4 (antibody, V domains shown, Murine 12B4 variable regions joined to human gamma 1 and C kappa constant regions (vectors pCMV-hγ1 and pCMV-hκ1), expressed in COS cells; also called chimeric 12B4 antibody) VH: QVTLKESGPGILQPSQTLSLTCSFSGFSLSTNGMGVSWIRQPSGKGLEWLAHIYWDEDKRYNPSLKSRLTISKDTSNNQVFLKITNVDTADTATYYCARRRIIYDVEDYFDYWGQGTTLTVSS VL: DVLMTQTPLSLPVSLGDQASISCRSSQNIVHSNGNTYLEWYLQKPGQSPKLLIYKVSNRFSGVPDRFSGSGSGTDFTLKISRVEAEDLGVYYCFQGSHVPLTFGAGTKLELK
2 | binds | murine 12B4 (antibody, V domains shown, Mouse monoclonal antibody of the IgG2a isotype; also called mAb 12B4; mouse 12B4) VH: QVTLKESGPGILQPSQTLSLTCSFSGFSLSTNGMGVSWIRQPSGKGLEWLAHIYWDEDKRYNPSLKSRLTISKDTSNNQVFLKITNVDTADTATYYCARRRIIYDVEDYFDYWGQGTTLTVSS VL: DVLMTQTPLSLPVSLGDQASISCRSSQNIVHSNGNTYLEWYLQKPGQSPKLLIYKVSNRFSGVPDRFSGSGSGTDFTLKISRVEAEDLGVYYCFQGSHVPLTFGAGTKLELK
